Results: patent US20200237928A1 (UNIVERSITY OF MIAMI, published 2020)
Side-chain parts run from the residue outwards. [ ]: non-standard residue; d: D form. Abu = CC[C@H](N)C(=O)O; Ahx = NCCCCCC(=O)O

Experiments:
[1] = biological target: T1, recombinant mouse IL4Rα extracellular domain (Ile26-Arg233), cleaved by factor Xa from the IL4Rα/human IgG1 … (mouse, UniProt P16382 26-233); test: FACS on IL4Rα-conjugated epoxybeads; 4PD against the FITC-peptide
T1 construct: range 26-233; Factor Xa cleavage in the IEGRMD spacer may leave some spacer residues at the C-terminus; Covalently linked to M-450 epoxy beads; also called recombinant IL4Rα; IL4Rα conjugated epoxybeads
T1 sequence (looked up): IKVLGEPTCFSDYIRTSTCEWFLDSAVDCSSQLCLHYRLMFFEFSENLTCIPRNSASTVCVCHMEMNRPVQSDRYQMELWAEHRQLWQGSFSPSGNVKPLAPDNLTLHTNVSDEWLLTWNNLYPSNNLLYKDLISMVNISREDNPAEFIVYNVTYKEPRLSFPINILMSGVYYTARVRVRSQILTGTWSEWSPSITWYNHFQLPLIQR
Procedure: (§1) Epoxybeads were conjugated with recombinant IL4Rα and used as binding target of 4PD or of the targeting peptide. Briefly, the recombinant chimeric IL4Rα protein composed by the mouse IL4Rα (Ile26 Arg233) and the human IgG1 (Pro100 Lys330) linked by the IEGRMD spacer polypeptide and generated in the NSO myeloma cell line was purchased by R&D systems (Minneapolis, Minn., USA). The protein was treated for 24 hours with 1.5% w/w factor Xa (SIGMA. St. Louis, Mo., USA) in tris-HCl (20 mM) and NaCl (200 mM) to cleave the IL4Rα extracellular domain. Factor Xa was removed by the solution using the Factor Xa removal resin (QIAGEN, Valencia, Calif., USA) and following the manufacturer instruction. IgG-linker fraction was removed from the solution by using protein-A conjugated magnetic beads (Invitrogen, Carlsbad, Calif., USA). The purity obtained by this procedure assessed by SDS PAGE was higher than 95% with only trace of IgG (data not shown). The obtained IL4Rα fraction was linked to epoxy magnetic beads M-450 by an overnight (ON) incubation at room temperature (RT) of 20×10⁶ beads with 10 μg of protein in a final volume of 1 mL in a sodium phosphate buffer (pH:8.0). […] Correct conjugation was evaluated via FACs after labeling with an anti-IL4Rα antibody.
(§2) Next, the binding of the 4PD to the IL4Rα was evaluated. […] Beads were washed twice with PBS and the binding evaluated by FACS.

[2] = biological target: T1, recombinant mouse IL4Rα extracellular …; test: FACS; Alexa555-shRNA/4PD complexes titrated on IL4Rα-conjugated epoxybeads, 10 min at RT; apparent Kd; peptide conjugated to the dendrimer (4PD)
Procedure: as §1, §2

B1: 4PD: G5 PAMAM dendrimer conjugated to the IL4Rα targeting peptide (acetyl)-LQRLFRAFR[Abu]LD[Ahx]C(amide), loaded with Alexa555-conjugated shRNA (other)
peptide: Ac-LQRLFRAFR[Abu]LD[Ahx]C([m‑maleimidobenzoyl-G5 PAMAM dendrimer])-NH2
modifications: also: several peptide copies on one G5 PAMAM dendrimer, complexed with Alexa555-labelled shRNA
notes: Not a plain protein: several copies of the peptide sit on a G5 PAMAM dendrimer (28,826 Da), complexed electrostatically with Alexa555-labelled scrambled shRNA; also called Alexa555-shRNA/4PD complexes; 4PD/Alexa555 complexes
fold increase of apparent Kd (avidity) against the free peptide [1]: ~1000 times | Kd [2]: 3000 nM
